Laboratory results published in IntAct's records for PubMed 25525273.

B1: Krev interaction trapped protein 1 (Homo sapiens), O00522 (parent)
chain: MGNPENIEDAYVAVIRPKNTASLNSREYRAKSYEILLHEVPIEGQKKKRKKVLLETKLQGNSEITQGILDYVVETTKPISPANQGIRGKRVVLMKKFPLDGEKMGREASLFIVPSVVKDNTKYTYTPGCPIFYCLQDIMRVCSESSTHFATLTARMLIALDKWLDERHAQSHFIPALFRPSPLERIKTNVINPAYATESGQTENSLHMGYSALEIKSKMLALEKADTCIYNPLFGSDLQYTNRVDKVVINPYFGLGAPDYSKIQIPKQEKWQRSMSSVTEDKERQWVDDFPLHRSACEGDSELLSRLLSERFSVNQLDSDHWAPIHYACWYGKVEATRILLEKGKCNPNLLNGQLSSPLHFAAGGGHAEIVQILLNHPETDRHITDQQGRSPLNICEENKQNNWEEAAKLLKEAINKPYEKVRIYRMDGSYRSVELKHGNNTTVQQIMEGMRLSQETQQYFTIWICSENLSLQLKPYHKPLQHVRDWPEILAELTNLDPQRETPQLFLRRDVRLPLEVEKQIEDPLAILILFDEARYNLLKGFYTAPDAKLITLASLLLQIVYGNYESKKHKQGFLNEENLKSIVPVTKLKSKAPHWTNRILHEYKNLSTSEGVSKEMHHLQRMFLQNCWEIPTYGAAFFTGQIFTKASPSNHKVIPVYVGVNIKGLHLLNMETKALLISLKYGCFMWQLGDTDTCFQIHSMENKMSFIVHTKQAGLVVKLLMKLNGQLMPTERNS

Variants of: B1
Conditions: with ccm2_human CCM2, Q9BSQ5
Chain of ccm2_human CCM2, Q9BSQ5 (Q9BSQ5 whole entry): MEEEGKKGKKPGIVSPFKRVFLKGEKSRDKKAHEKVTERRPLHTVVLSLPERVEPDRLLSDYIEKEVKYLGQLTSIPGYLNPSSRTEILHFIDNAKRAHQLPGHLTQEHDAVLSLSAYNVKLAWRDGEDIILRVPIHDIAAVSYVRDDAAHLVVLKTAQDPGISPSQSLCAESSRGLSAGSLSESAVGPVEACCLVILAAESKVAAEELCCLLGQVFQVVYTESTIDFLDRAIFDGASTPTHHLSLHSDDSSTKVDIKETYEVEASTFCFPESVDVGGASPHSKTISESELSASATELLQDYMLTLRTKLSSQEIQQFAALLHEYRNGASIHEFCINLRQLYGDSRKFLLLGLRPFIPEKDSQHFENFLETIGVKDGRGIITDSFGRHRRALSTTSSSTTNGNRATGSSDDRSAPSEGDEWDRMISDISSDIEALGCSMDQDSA

Variant	effect of a mutation on the interaction
Y195A	with no effect
F234A	with no effect
Y252A;F253A	with no effect
F234A;Y252A;F253A	decreasing interaction strength

Variants of: B1
Conditions: with ccm2_human CCM2, Q9BSQ5
Remark: another data set of the same source

Variant	effect of a mutation on the interaction
V248D	disrupting interaction strength
Y252A;F253A	disrupting interaction strength
V244L	decreasing interaction strength
